From patent publication US20240076315A1 (ALLIFE MEDICINE ZHUHAI, published 2024) come the findings set out here.

The test concerns the target T1, cell surface antigen PSMA on Lncap cell line with high PSMA expression (UniProt Q04609 1-750, limits assumed).
T1 construct: whole, on cells; Lncap is a prostate cancer cell line; also called Lncap cells
Description: immunofluorescence on Lncap cells (high PSMA expression), FITC marker. The protocol: Immunofluorescence detection was performed on KHL peptides in Lncap cell lines with high PSMA expression and PC3 cell lines with low PSMA expression, using FITC as the fluorescent marker.

No end group written: not given here.

T1 sequence (Q04609 whole entry): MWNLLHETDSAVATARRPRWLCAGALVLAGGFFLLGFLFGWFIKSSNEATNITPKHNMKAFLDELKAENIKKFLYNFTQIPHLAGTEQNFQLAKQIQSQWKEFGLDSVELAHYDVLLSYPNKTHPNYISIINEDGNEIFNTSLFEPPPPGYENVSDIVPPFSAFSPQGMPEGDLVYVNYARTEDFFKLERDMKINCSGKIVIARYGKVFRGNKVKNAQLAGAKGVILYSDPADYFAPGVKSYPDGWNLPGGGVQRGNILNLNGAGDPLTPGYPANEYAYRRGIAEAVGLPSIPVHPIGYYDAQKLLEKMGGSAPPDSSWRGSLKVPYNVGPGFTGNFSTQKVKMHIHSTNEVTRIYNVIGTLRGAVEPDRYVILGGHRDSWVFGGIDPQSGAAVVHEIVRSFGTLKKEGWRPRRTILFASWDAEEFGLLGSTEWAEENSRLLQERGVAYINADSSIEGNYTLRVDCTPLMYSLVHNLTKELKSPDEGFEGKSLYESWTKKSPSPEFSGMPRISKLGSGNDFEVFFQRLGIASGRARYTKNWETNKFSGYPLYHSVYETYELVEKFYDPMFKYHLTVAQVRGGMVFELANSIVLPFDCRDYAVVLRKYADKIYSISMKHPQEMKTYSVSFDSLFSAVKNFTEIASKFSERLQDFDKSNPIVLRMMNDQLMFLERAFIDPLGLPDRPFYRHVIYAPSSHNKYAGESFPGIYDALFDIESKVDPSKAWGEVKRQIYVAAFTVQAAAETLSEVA

B1: KHL peptide with FITC as the fluorescent marker (peptide)
peptide: KHLHYHSSVRYG
modifications: also: FITC label, attachment site not given here
notes: also called KHL peptide conjugate
With B1, the binding result was “binds”.
